From patent US20220372147A1 (UNIVERSIT T STUTTGART, published 2022) come the findings set out here.

Where a chain is given by its changes, count along the chain named. Names may count otherwise.

For assay [1], the target named is T1, HER3 on HER3-expressing cancer cells (LIM1215, BT474) (UniProt P21860 20-1342, limits assumed). Briefly: cell-based or functional assay.
Assay [2] deals with T2, CD3 on CD3-expressing Jurkat cells (human, UniProt P07766 23-207).
T2 construct: whole, on cells
The experiment in a line: flow cytometry on CD3-expressing Jurkat cells, PE anti-human Fc. A general note: A flow cytometer gives signals particle by particle.

The target in assay [3] is T1, HER3 on HER3-expressing cancer cells …. The experiment in a line: flow cytometry on HER3-expressing BT474 cells, PE anti-human Fc.
For assay [4] the target is unchanged. The experiment in a line: flow cytometry on HER3-expressing LIM1215 cells, PE anti-human Fc.
Assay [5] addresses T3, MET Fc fusion protein, extracellular domain (ECD) of MET (aa 25-787) (UniProt P08581 25-787).
T3 construct: range 25-787; not shown: Fc part
Briefly: ELISA, immobilized MET-Fc, anti-human Fab-HRP detection. (An ELISA detects its analyte on a solid surface through an enzyme-linked reagent.)

Assay [6] has as its target T4, His-tagged HER3 protein, extracellular domain (ECD) of HER3 (aa 21-643) (UniProt P21860 21-643).
T4 construct: range 21-643; also called HER3-His; not shown: His-tag
The experiment in a line: ELISA, immobilized HER3-His, anti-human Fc-HRP detection.

The target of assay [7] is T5, HER3-Fc fusion protein, extracellular domain (ECD) of HER3 (aa 21-643) fused to an Fc part (UniProt P21860 21-643).
T5 construct: range 21-643; not shown: Fc part
The experiment in a line: ELISA, immobilized HER3-Fc, anti-His-HRP detection.

As usually defined, the EC50 is the midpoint of the concentration-response curve. Higher therefore signals weaker potency.

T2 sequence (P07766 23-207): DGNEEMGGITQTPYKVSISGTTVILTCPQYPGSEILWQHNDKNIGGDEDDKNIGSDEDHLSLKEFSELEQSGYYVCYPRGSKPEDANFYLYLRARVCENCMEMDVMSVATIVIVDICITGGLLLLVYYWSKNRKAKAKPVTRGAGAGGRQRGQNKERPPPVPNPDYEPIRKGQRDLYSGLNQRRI
T3 sequence (P08581 25-787 limits assumed): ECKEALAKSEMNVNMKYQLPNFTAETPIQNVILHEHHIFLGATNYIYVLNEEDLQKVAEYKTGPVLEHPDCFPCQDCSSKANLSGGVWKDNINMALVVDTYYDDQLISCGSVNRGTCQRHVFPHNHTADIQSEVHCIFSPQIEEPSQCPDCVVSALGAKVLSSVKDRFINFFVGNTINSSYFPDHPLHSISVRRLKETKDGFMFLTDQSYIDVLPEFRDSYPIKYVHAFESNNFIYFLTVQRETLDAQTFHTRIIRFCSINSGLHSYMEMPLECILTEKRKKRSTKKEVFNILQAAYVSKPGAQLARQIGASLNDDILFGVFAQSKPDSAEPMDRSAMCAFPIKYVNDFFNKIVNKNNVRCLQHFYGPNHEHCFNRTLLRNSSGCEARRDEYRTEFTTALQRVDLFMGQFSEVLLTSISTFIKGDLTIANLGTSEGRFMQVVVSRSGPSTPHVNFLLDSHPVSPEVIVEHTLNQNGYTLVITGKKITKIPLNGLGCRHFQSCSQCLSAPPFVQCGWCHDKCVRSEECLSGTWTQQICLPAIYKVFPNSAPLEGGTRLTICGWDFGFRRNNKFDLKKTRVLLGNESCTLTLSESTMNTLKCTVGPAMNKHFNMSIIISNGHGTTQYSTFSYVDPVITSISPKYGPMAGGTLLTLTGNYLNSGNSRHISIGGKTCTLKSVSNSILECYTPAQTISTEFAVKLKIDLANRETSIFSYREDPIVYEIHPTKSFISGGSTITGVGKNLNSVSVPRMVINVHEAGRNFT

B1: bispecific, trivalent eIg-Fab4 targeting HER3 and CD3 (bispecific antibody)
light 1: QAGLTQPPAVSVAPGQTASITCGRDNIGSRSVHWYQQKPGQAPVLVVYDDSDRPAGIPERFSGSNYENTATLTISRVEAGDEADYYCQVWGITSDHVVFGGGTKLTVLGQPKAAPSVTLFPPSSEELQANKATLVCLISDFYPGAVTVAWKADSSPVKAGVETTTPSKQSNNKYAASSYLSLTPEQWKSHRSYSCQVTHEGSTVEKTVAPTECS
heavy 1: not shown
light 2: not shown
heavy 2: QVQLQQSGPGLVKPSQTLSLTCAISGDSVSSNRAAWNWIRQSPSRGLEWLGRTYYRSKWYNDYAQSLKSRITINPDTPKNQFSLQLNSVTPEDTAVYYCARDGQLGLDALDIWGQGTMVTVSSASTKGPSVFPLAPSSKSTSGGTAALGCLVKDYFPEPVTVSWNSGALTSGVHTFPAVLQSSGLYSLSSVVTVPSSSLGTQTYICNVNHKPSNTKVDKKVEPKSCGGSGGGGSGGQVQLVQSGAEVKKPGSSVKVSCKASGGTFSGYTMNWVRQAPGQGLEWMGLINPYKGVSTYNGKFKDRVTITADKSTSTAYMELSSLRSEDTAVYYCARSGYYGDSDWYFDVWGQGTLVTVSSDFTPPTVKILQSSCDGGGHFPPTIQLLCLVSGYTPGTINITWLEDGQVMDVDLSTASTTQEGELASTQSELTLSQKHWLSDRTYTCQVTYQGHTFEDSTKKSADSNGTDKTHTCPPCPAPPVAGPSVFLFPPKPKDTLMISRTPEVTCVVVDVSHEDPEVKFNWYVDGVEVHNAKTKPREEQYNSTYRVVSVLTVLHQDWLNGKEYKCKVSNKGLPSSIEKTISKAKGQPREPQVCTLPPSRDELTKNQVSLSCAVKGFYPSDIAVEWESNGQPENNYKTTPPVLDSDGSFFLVSKLTVDKSRWQQGNVFSCSVMHEALHNHYTQKSLSLSPGK
Consider B1, for which the “EC50 value in cell killing (PBMC-mediated cytotoxicity on BT-474 cells, crystal violet)” value in assay [1] worked out at 0.2 nM. Besides, the “EC50 value in cell killing (PBMC-mediated cytotoxicity on LIM1215 cells, crystal violet)” value in assay [1] came out at 0.1 nM. In addition, the EC50 in assay [2] was 5.9 nM; in assay [3], 0.6 nM; in assay [4], 0.21 nM.

B2: bispecific bivalent anti-cMET x anti-HER3 eIgG1 (EHD2 configuration HC1-LC2) (bispecific antibody)
light 1: B1 light 1
heavy 1: not shown
heavy 2: not shown
light 2: DIQMTQSPSSLSASVGDRVTITCKSSQSLLYTSSQKNYLAWYQQKPGKAPKLLIYWASTRESGVPSRFSGSGSGTDFTLTISSLQPEDFATYYCQQYYAYPWTFGQGTKVEIKRTDFTPPTVKILQSSCDGGGHFPPTIQLLCLVSGYTPGTINITWLEDGQVMDVDLSTASTTQEGELASTQSELTLSQKHWLSDRTYTCQVTYQGHTFEDSTKKSADSN
notes: Four different polypeptide chains, knob-into-hole Fc
As for B2, the 50% effective concentration (EC50) stood at 3.8 nM in assay [5] and 1 nM in assay [6].

B3: bispecific, trivalent eIg-Fab2 targeting HER3 and CD3 (bispecific antibody)
light 1: B1 light 1
light 2: not shown
heavy 1: not shown
heavy 2: not shown
As to B3, the results for the EC50 in assay [2], in assay [3] and in assay [4] were 0.2 nM, 1.7 nM and 1.3 nM, respectively.

B4: bispecific bivalent anti-cMET x anti-HER3 eIgG2 (EHD2 configuration HC2-LC1) (bispecific antibody)
light 1: B1 light 1
heavy 1: not shown
heavy 2: not shown
light 2: B2 light 2 with C129S, N154Q, S217C
notes: as for B2
Regarding B4, the EC50 in assay [5] was determined as 5.4 nM; in assay [6], 1.4 nM.

B5: Fv3-43-hetEHD2 eFab molecule 8 (C102T Fd; C14T,N39Q light chain) (Fab, V domains shown)
VH: QVQLQQSGPGLVKPSQTLSLTCAISGDSVSSNRAAWNWIRQSPSRGLEWLGRTYYRSKWYNDYAQSLKSRITINPDTPKNQFSLQLNSVTPEDTAVYYCARDGQLGLDALDIWGQGTMVTVSS
VL: QAGLTQPPAVSVAPGQTASITCGRDNIGSRSVHWYQQKPGQAPVLVVYDDSDRPAGIPERFSGSNYENTATLTISRVEAGDEADYYCQVWGITSDHVVFGGGTKLTVLD
notes: Monovalent anti-HER3 Fab-like molecule; His-tag on the Fd chain
Regarding B5, in assay [7], the response was half-maximal at 6.2 nM (EC50).

B6: bivalent and monospecific eIg molecule targeting HER3 (antibody, V domains shown)
VH: B5 VH
VL: B5 VL with D109G
notes: Homodimerizing Fc; also called monospecific, bivalent eIg antibody; anti-HER3 bivalent eIg
B6: in assay [6], the response was half-maximal at 1.4 nM (EC50).

B7: Fv3-43-hetEHD2 eFab molecule 3 (C102N Fd; C14A,N39Q light chain) (Fab, V domains shown)
VH: B5 VH
VL: B5 VL
notes: Monovalent anti-HER3 Fab-like molecule; His-tag on the Fd chain; also called C14A,N39Q:N39,C102N
In turn, B7 gave a half-maximal effective concentration (EC50) in assay [7] of 4.8 nM.

B8: Fv3-43-hetEHD2 eFab molecule 7 (C102T Fd; C14W,N39Q light chain) (Fab, V domains shown)
VH: B5 VH
VL: B5 VL
notes: as for B5
In the case of B8, a half-maximal response in assay [7] (EC50) required 7.1 nM.

B9: Fv3-43-hetEHD2 eFab molecule 6 (C102N Fd; C14T,N39Q light chain) (Fab, V domains shown)
VH: B5 VH
VL: B5 VL
notes: Monovalent anti-HER3 Fab-like molecule; His-tag on the Fd chain; also called C14T,N39Q:N39,C102N
B9 yielded an EC50 in assay [7] of 4.1 nM.

B10: Fv3-43-hetEHD2 eFab molecule 4 (C102T Fd; C14N,N39Q light chain) (Fab, V domains shown)
VH: B5 VH
VL: B5 VL
notes: Monovalent anti-HER3 Fab-like molecule; His-tag on the Fd chain; also called C14N,N39Q:N39,C102T
B10 showed a concentration giving a half-maximal response (EC50) in assay [7] of 3 nM.

B11: Fv3-43-hetEHD2 eFab molecule 2 (C102W Fd; C14T,N39Q light chain) (Fab, V domains shown)
VH: B5 VH
VL: B5 VL
notes: as for B5
Take B11: it took 7.3 nM to reach a half-maximal effect in assay [7] (EC50).

B12: Fv3-43-hetEHD2 eFab molecule 1 (C102A Fd; C14A,N39Q light chain) (Fab, V domains shown)
VH: B5 VH
VL: B5 VL
notes: Monovalent anti-HER3 Fab-like molecule; His-tag on the Fd chain; also called C14A,N39Q:N39,C102A
On to B12, for which a half-maximal effect in assay [7] (EC50) was put at 12.1 nM.

B13: Fv3-43-hetEHD2 eFab molecule 9 (C102S Fd; C14S,N39Q light chain) (Fab, V domains shown)
VH: B5 VH
VL: B5 VL
notes: N-glycan only on the Fd EHD2-2 domain; also called originally used eFab (C14S,N39Q:N39,C102S)
Regarding B13, the EC50 in assay [7] is 3.7 nM.

B14: Fv3-43-hetEHD2 eFab molecule 5 (C102A Fd; C14W,N39Q light chain) (Fab, V domains shown)
VH: B5 VH
VL: B5 VL
notes: as for B5
In assay [7], B14 displayed a half-maximal effective concentration (EC50) of 11 nM.
